From publication PMC4277889
Read-outs that look alike come from different tables or passages of the source.

Experiments:
[1] = target: T1, EpCAM (epithelial cell adhesion molecule) (UniProt P16422 24-265); assay: ACP fluorescence switching
T1 sequence: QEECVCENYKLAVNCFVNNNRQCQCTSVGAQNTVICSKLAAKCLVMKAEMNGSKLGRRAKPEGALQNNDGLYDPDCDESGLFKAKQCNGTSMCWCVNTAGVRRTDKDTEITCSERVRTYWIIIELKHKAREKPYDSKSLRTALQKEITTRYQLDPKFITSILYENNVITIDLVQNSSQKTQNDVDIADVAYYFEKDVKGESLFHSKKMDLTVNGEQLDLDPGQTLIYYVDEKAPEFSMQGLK

[2] = target: T1, EpCAM (epithelial cell adhesion …); assay: ACP fluorescence switching; remark: listed apart in the source

B1: random sequence ACP (ssDNA)
DNA: TAAGTATATCGTGCCTGCGACTATGTTATGATGAGGCAGTCTTTAACCTGACTCGTAATA
modifications: 5' conjugated to polydiacetylene as JYK-01
binding result [1]: no binding

B2: JYK-01 ACP (polydiacetylene conjugate) (ssDNA)
DNA: TGAAGGTTCGTTGTTTCGGTGGGTGTAGACTCTTTAGAAGAGATACAGATTTTGGGAATG
modifications: 5' amine coupled to diacetylene monomer (TCDA) in polydiacetylene particle
binding result [2]: binds
